According to PMC8914513, “Inhibition of Protein Kinase CK2 Affects Thymidylate Synthesis Cycle Enzyme Level and Distribution in Human Cancer Cells” (Frontiers in Molecular Biosciences, 2022):

B1: serine hydroxymethyltransferase, cytosolic (SHMT1), as used in MST (enzyme, UniProt P34896 1-483, looked up)
chain: MTMPVNGAHKDADLWSSHDKMLAQPLKDSDVEVYNIIKKESNRQRVGLELIASENFASRAVLEALGSCLNNKYSEGYPGQRYYGGTEFIDELETLCQKRALQAYKLDPQCWGVNVQPYSGSPANFAVYTALVEPHGRIMGLDLPDGGHLTHGFMTDKKKISATSIFFESMPYKVNPDTGYINYDQLEENARLFHPKLIIAGTSCYSRNLEYARLRKIADENGAYLMADMAHISGLVAAGVVPSPFEHCHVVTTTTHKTLRGCRAGMIFYRKGVKSVDPKTGKEILYNLESLINSAVFPGLQGGPHNHAIAGVAVALKQAMTLEFKVYQHQVVANCRALSEALTELGYKIVTGGSDNHLILVDLRSKGTDGGRAEKVLEACSIACNKNTCPGDRSALRPSGLRLGTPALTSRGLLEKDFQKVAHFIHRGIELTLQIQSDTGVRATLKEFKERLAGDKYQAAVQALREEVESFASLFPLPGLPDF
modifications: fluorescently labeled in the SHMT-TS titration only; unlabeled titrant in the other MST experiments
notes: cytosolic serine hydroxymethyltransferase (SHMT1); Same preparation as m1; source: recombinant, overexpressed, purified (Ni-NTA, dialysis)
B2: serine hydroxymethyltransferase, cytosolic (SHMT1), His-tagged, immobilised in QCM-D (enzyme, UniProt P34896 1-483, looked up)
chain: B1 chain
notes: cytosolic serine hydroxymethyltransferase (SHMT1); Purified and stored with 50 uM pyridoxal phosphate; Captured by its His tag on the QSX340 sensor; also called His-tagged SHMT; His-tagged SHMT1; source: recombinant, overexpressed, purified (Ni-NTA, dialysis)
B3: dihydrofolate reductase (DHFR), tagless ligand in QCM-D (enzyme, UniProt P00374 1-187, looked up)
chain: MVGSLNCIVAVSQNMGIGKNGDLPWPPLRNEFRYFQRMTTTSSVEGKQNLVIMGKKTWFSIPEKNRPLKGRINLVLSRELKEPPQGAHFLSRSLDDALKLTEQPELANKVDMVWIVGGSSVYKEAMNHPGHLKLFVTRIMQDFESDTFFPEIDLEKYKLLPEYPGVLSDVQEEKGIKYKFEVYEKND
notes: dihydrofolate reductase (DHFR); source: recombinant, overexpressed and purified as described previously (Antosiewicz et al., 2015; Skierka et al., 2019); His tag removed with Thrombin CleanCleave Kit
B4: dihydrofolate reductase (DHFR), fluorescently labeled, as used in MST (enzyme, UniProt P00374 1-187, looked up)
chain: B3 chain
modifications: fluorescently labeled (dye and site not stated)
notes: dihydrofolate reductase (DHFR); also called labeled DHFR; source: recombinant, overexpressed and purified as described previously (Antosiewicz et al., 2015; Skierka et al., 2019)

How the values were obtained:
Conditions in all cases: both partners purified
[1] = target: T1, labeled DHFR with a constant concentration of TS (9.0 uM), MST tri-complex assay ( | human, UniProt P00374 1-187; P04818 1-313, fluorescently labeled (dye and site not stated)); experiment: MST; tri-complex: constant labeled DHFR and TS or pTS (9.0 uM), SHMT titrated 157 uM-4.79 nM; Kd model fit
T1 construct: dihydrofolate reductase (DHFR); human thymidylate synthase (TS); A mixture at constant concentrations, not a purified complex; also called DHFR/TS; source: purified recombinant proteins mixed: constant labeled DHFR and 9.0 uM TS
T1 sequence (P04818 whole entry, one chain of several): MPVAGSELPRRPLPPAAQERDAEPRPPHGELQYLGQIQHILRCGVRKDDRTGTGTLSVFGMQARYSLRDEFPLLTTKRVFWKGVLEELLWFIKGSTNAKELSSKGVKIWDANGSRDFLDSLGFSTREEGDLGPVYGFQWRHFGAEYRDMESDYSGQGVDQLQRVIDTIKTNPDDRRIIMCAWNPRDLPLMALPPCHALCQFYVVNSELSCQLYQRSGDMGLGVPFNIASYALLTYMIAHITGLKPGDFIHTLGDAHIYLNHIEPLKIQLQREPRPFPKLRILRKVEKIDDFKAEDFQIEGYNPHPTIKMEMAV

[2] = target: T2, labeled DHFR with a constant concentration of pTS (9.0 uM), MST tri-complex assay ( | human, UniProt P00374 1-187); P04818 1-313, fluorescently labeled (dye and site not stated) | phosphorylated in vitro by CK2alpha; residue not stated for this preparation (the introduction names serine 124 as the site of CK2-mediated …); experiment: as above
T2 construct: dihydrofolate reductase (DHFR); human thymidylate synthase (TS); A mixture at constant concentrations, not a purified complex; also called DHFR/pTS; source: purified recombinant proteins mixed: constant labeled DHFR and 9.0 uM pTS
T2 sequence (P04818 whole entry, one chain of several): as above

[3] = target: T3, mixture of DHFR and pTS introduced together in the three-protein QCM-D assay ( | human, UniProt P00374 1-187; P04818 1-313, phosphorylated in vitro by CK2alpha; residue not stated for this preparation (the introduction names serine 124 as the site of CK2-mediated phosphorylation of human TS)); experiment: QCM-D (quartz crystal microbalance with dissipation monitoring); three proteins: 5 uM His-tagged SHMT1 immobilised on the sensor; mixture of fixed pTS (1.0 uM) and DHFR 0.25-2.0 uM introduced; 20 mM Tris-HCl pH 7.6, 100 mM (salt not given), 10 mM MgCl2, 0.05% Tween 20, 25 C, 200 ul/min; Langmuir isotherm fit
T3 construct: dihydrofolate reductase (DHFR); human thymidylate synthase (TS); A mixture, not a purified preformed complex; only the DHFR concentration was varied; also called DHFR/pTS; fixed pTS and variable DHFR; source: purified recombinant proteins mixed: pTS fixed at 1.0 uM, DHFR 0.25-2.0 uM
T3 sequence (P04818 whole entry, one chain of several): as above

[4] = target: B2; experiment: QCM-D (quartz crystal microbalance with dissipation monitoring); two proteins: 5 uM His-tagged SHMT immobilised on His-tag capturing sensor QSX340; tagless ligand introduced (0.1-1.0 uM or 0.5-7.0 uM for TS, pTS or DHFR); 20 mM Tris-HCl pH 7.6, 100 mM (salt not given), 10 mM MgCl2, 0.05% Tween 20, 25 C, 200 ul/min; Langmuir isotherm fit
[5] = target: B1; experiment: MST; two proteins in solution, Premium capillaries: labeled DHFR with SHMT 157 uM-4.79 nM; labeled SHMT with TS 62.0 uM-1.9 nM; labeled pTS with SHMT 157 uM-4.79 nM; Kd model fit

Binder: B1
Kd [1]: 5.04 ± 0.5 µM
Kd [2]: 0.32 ± 0.05 µM

Binder: B2
Kd [3]: 0.28 ± 0.23 µM

Binder: B3
Kd [4]: 12.1 ± 7.86 µM

Binder: B4
Kd [5]: 12.6 ± 0.66 µM
